From EP4536686B1 (GENETHON, dated 2025) come the findings set out here.

The target in the experiment is T1, integrin heterodimer αVβ6 (ITGAV-B6) (human, UniProt P06756 31-1048; P18564 22-788).
T1 construct: whole, on cells; Species is read from the 'h' prefix of hITGAV and hITGB6; also called ITGAV-B6 heterodimers; hITGAV and hITGB6
The experiment can be described thus: concluding sentence, resting on the infection and luciferase assay in 293_ITGAV-B6 cells; no direct binding assay.

T1 sequence (P06756 31-1048, chain 1 of 2): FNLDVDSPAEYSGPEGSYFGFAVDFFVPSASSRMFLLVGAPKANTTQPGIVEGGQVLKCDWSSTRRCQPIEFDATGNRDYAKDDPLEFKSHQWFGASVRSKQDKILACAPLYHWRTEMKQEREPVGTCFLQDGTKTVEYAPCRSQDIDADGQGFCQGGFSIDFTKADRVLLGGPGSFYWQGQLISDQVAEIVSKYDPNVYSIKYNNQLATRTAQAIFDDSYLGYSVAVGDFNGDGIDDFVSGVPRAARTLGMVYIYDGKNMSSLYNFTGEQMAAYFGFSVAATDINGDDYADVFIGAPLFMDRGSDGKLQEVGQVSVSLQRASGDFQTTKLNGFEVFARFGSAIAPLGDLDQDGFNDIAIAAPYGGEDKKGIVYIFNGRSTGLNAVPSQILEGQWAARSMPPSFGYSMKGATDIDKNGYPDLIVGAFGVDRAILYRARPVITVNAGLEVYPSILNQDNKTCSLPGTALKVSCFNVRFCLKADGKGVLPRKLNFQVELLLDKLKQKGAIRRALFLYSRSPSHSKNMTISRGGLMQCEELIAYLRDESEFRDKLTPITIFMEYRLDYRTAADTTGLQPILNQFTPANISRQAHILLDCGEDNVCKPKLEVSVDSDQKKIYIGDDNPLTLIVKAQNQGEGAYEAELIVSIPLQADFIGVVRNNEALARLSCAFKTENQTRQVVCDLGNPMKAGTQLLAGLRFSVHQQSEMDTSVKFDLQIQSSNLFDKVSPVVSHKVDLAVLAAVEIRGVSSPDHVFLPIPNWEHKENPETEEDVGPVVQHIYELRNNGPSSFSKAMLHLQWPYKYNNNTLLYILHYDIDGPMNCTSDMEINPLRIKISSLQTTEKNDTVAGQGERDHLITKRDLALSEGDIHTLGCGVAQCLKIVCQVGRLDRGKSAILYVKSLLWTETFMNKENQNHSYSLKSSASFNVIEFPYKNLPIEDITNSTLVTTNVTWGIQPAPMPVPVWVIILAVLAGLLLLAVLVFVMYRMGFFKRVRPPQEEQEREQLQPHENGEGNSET
T1 sequence (P18564 22-788, chain 2 of 2): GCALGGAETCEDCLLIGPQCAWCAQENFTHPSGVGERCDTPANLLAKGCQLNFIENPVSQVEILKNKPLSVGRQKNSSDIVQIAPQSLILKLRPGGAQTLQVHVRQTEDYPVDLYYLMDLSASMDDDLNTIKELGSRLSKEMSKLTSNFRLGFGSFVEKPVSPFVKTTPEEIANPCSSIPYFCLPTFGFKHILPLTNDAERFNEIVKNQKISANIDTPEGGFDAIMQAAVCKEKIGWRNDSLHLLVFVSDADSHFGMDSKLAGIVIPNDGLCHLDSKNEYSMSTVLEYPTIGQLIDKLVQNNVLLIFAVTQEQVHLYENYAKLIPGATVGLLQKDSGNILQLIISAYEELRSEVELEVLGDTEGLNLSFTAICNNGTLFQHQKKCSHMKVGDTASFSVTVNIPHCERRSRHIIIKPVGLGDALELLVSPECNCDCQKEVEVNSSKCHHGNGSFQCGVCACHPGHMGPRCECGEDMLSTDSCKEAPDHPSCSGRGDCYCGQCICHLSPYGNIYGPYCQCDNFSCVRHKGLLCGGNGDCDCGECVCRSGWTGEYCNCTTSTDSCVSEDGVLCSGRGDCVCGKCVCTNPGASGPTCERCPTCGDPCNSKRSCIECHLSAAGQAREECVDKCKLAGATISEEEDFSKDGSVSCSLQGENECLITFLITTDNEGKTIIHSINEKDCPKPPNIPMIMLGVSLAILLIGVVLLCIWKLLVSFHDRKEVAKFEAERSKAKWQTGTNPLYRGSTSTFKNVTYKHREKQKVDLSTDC

B1: AAV_Cap9rh74_VR4-4um9.Nat (other)
chain: MAADGYLPDWLEDNLSEGIREWWALKPGAPQPKANQQHQDNARGLVLPGYKYLGPGNGLDKGEPVNAADAAALEHDKAYDQQLKAGDNPYLKYNHADAEFQERLKEDTSFGGNLGRAVFQAKKRLLEPLGLVEEAAKTAPGKKRPVEQSPQEPDSSAGIGKSGAQPAKKRLNFGQTGDTESVPDPQPIGEPPAAPSGVGSLTMASGGGAPVADNNEGADGVGSSSGNWHCDSQWLGDRVITTSTRTWALPTYNNHLYKQISNSTSGGSSNDNAYFGYSTPWGYFDFNRFHCHFSPRDWQRLINNNWGFRPKRLNFKLFNIQVKEVTDNNGVKTIANNLTSTVQVFTDSDYQLPYVLGSAHEGCLPPFPADVFMIPQYGYLTLNDGSQAVGRSSFYCLEYFPSQMLRTGNNFQFSYEFENVPFHSSYAHSQSLDRLMNPLIDQYLYYLSRTQSTDGRGDLGRLGPQQLLFSQAGPNNMSAQAKNWLPGPCYRQQRVSTTLSQNNNSNFAWTGATKYHLNGRDSLVNPGVAMATHKDDEERFFPSSGVLMFGKQGAGKDNVDYSSVMLTSEEEIKTTNPVATEQYGVVADNLQQQNAAPIVGAVNSQGALPGMVWQNRDVYLQGPIWAKIPHTDGNFHPSPLMGGFGMKHPPPQILIKNTPVPADPPTAFNKDKLNSFITQYSTGQVSVEIEWELQKENSKRWNPEIQYTSNYYKSNNVEFAVNTEGVYSEPRPIGTRYLTRNL
notes: Tested as a whole recombinant AAV vector particle packaging CMV-GFP/Luc; also called Cap9rh74_VR4-4um9(LICA.01)
B1: the binding result is given as “binds”.

B2: AAV_Cap9rh74_VR4-5ffo.Nat (other)
chain: MAADGYLPDWLEDNLSEGIREWWALKPGAPQPKANQQHQDNARGLVLPGYKYLGPGNGLDKGEPVNAADAAALEHDKAYDQQLKAGDNPYLKYNHADAEFQERLKEDTSFGGNLGRAVFQAKKRLLEPLGLVEEAAKTAPGKKRPVEQSPQEPDSSAGIGKSGAQPAKKRLNFGQTGDTESVPDPQPIGEPPAAPSGVGSLTMASGGGAPVADNNEGADGVGSSSGNWHCDSQWLGDRVITTSTRTWALPTYNNHLYKQISNSTSGGSSNDNAYFGYSTPWGYFDFNRFHCHFSPRDWQRLINNNWGFRPKRLNFKLFNIQVKEVTDNNGVKTIANNLTSTVQVFTDSDYQLPYVLGSAHEGCLPPFPADVFMIPQYGYLTLNDGSQAVGRSSFYCLEYFPSQMLRTGNNFQFSYEFENVPFHSSYAHSQSLDRLMNPLIDQYLYYLSRTQSEPRRGDLATIGSQQLLFSQAGPNNMSAQAKNWLPGPCYRQQRVSTTLSQNNNSNFAWTGATKYHLNGRDSLVNPGVAMATHKDDEERFFPSSGVLMFGKQGAGKDNVDYSSVMLTSEEEIKTTNPVATEQYGVVADNLQQQNAAPIVGAVNSQGALPGMVWQNRDVYLQGPIWAKIPHTDGNFHPSPLMGGFGMKHPPPQILIKNTPVPADPPTAFNKDKLNSFITQYSTGQVSVEIEWELQKENSKRWNPEIQYTSNYYKSNNVEFAVNTEGVYSEPRPIGTRYLTRNL
notes: Tested as a whole recombinant AAV vector particle packaging CMV-GFP/Luc
B2: the binding result is “binds”.
